In US20040102610A1 (Genentech, published 2004):

T1: GST-hSu(fu) (UniProt Q9UMX1)
T1 sequence: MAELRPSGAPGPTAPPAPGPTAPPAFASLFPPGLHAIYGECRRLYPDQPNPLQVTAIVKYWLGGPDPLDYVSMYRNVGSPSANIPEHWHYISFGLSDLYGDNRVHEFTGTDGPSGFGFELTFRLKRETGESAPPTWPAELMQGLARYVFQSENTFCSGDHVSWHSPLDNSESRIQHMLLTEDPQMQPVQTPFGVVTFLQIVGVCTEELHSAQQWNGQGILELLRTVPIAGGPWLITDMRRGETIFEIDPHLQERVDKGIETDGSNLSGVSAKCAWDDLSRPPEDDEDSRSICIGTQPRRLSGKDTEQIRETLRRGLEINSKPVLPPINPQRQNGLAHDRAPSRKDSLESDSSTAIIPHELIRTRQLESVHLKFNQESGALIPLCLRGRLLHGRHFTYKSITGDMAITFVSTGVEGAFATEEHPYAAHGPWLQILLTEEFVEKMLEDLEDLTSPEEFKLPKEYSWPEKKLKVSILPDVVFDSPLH

T2: hfused C-Flag (human, UniProt Q9NRP7 1-1315)
T2 construct: also called human fused C-Flag
T2 sequence: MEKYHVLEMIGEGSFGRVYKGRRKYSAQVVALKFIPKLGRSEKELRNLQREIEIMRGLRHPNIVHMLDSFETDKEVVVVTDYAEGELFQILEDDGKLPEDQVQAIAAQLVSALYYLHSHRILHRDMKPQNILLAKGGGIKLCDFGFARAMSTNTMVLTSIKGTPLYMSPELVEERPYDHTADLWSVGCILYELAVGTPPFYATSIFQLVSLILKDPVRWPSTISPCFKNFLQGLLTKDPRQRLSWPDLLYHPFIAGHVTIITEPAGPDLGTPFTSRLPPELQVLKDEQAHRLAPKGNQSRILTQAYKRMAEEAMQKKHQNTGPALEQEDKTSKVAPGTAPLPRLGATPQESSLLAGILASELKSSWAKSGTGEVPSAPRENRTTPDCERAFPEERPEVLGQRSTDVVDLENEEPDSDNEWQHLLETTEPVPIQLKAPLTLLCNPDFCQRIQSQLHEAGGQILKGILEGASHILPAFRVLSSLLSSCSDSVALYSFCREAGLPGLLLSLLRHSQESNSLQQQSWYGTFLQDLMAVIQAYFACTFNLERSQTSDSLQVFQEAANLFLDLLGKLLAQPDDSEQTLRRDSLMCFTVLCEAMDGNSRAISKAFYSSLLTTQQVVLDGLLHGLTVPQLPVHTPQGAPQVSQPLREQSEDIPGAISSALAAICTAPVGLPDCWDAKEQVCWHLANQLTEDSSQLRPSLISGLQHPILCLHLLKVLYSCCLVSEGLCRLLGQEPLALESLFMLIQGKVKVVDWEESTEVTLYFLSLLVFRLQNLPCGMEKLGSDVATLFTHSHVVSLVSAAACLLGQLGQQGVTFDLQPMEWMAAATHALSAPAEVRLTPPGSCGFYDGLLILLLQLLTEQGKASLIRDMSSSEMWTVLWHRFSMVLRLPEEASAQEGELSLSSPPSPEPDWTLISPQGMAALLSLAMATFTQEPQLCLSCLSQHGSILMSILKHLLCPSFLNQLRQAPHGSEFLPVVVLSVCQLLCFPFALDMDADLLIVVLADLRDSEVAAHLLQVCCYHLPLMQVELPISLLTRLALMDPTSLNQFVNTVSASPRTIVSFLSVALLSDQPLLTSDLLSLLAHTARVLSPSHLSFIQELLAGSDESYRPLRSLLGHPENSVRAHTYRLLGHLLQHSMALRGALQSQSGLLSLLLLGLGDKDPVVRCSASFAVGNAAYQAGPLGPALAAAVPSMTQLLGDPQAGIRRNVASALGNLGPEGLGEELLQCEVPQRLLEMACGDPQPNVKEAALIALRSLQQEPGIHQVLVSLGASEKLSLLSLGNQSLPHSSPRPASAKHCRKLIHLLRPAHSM

T3: human fused (human, UniProt Q9NRP7 1-1315)
T3 construct: The same id is used for endogenous human fused of 293 cells in the GST-hSu(fu) pull-down; also called hfused; hFu
T3 sequence: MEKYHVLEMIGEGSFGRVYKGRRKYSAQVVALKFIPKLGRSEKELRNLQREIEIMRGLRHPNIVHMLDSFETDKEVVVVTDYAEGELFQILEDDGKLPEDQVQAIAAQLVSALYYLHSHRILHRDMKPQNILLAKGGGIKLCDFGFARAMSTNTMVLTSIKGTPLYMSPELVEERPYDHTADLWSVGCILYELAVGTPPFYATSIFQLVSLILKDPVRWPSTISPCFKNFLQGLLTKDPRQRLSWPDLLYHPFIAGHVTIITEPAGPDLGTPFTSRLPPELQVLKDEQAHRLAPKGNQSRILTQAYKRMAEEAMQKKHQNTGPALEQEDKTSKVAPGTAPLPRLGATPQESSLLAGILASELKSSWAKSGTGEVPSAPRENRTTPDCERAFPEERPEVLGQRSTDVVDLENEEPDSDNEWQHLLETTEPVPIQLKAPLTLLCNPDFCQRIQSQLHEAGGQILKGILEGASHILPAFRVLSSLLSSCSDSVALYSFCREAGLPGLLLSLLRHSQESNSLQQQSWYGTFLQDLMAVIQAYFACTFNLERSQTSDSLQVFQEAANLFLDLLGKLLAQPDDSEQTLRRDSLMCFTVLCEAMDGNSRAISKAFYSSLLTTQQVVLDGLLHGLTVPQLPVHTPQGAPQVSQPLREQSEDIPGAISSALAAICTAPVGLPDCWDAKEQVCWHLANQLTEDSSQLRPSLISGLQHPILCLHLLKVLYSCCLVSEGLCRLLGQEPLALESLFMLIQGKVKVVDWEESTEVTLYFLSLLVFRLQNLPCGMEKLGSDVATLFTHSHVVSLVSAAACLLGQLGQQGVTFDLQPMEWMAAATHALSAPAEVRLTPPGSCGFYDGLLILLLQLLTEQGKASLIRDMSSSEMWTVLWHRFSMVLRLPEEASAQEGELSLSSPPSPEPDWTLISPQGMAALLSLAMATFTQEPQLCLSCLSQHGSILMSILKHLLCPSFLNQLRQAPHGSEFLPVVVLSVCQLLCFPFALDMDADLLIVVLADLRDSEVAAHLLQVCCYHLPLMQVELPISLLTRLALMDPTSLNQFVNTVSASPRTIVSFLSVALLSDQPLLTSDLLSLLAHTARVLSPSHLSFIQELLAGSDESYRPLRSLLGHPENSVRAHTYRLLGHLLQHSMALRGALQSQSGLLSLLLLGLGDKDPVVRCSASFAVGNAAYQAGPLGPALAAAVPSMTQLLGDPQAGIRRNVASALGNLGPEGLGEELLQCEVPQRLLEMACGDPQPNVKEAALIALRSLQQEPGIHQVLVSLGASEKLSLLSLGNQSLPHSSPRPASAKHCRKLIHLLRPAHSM


Tests used:
[1] = molecular target: T1, GST-hSu(fu)
[2] = molecular target: T2, hfused C-Flag; test: 293 cells, anti-Myc or anti-Flag IP, immunoblot
Excerpt: (§1) FIG. 14 describes the biochemical interaction of hFu, hSu(fu) and hGli-1. FIG. 14(A) depicts the interaction of hFu with hSu(fu) in mammalian cells. 293 cells were transfected with hfused and hSu(fu) C-Flag or hfused C-Flag and hSu(fu) C-Myc either alone or in combination. Cell lysates were subjected to anti-Flag immunoprecipitation, and co-precipitating proteins were detected by immunoblotting. FIG. 14(B) depicts the interaction of hfused with hGli-1 in mammalian cells. 293 cells were transfected with hfused C-Flag or N-Myc hGli-1 both alone or in combination, and immunoprecipitated with anti-Myc or anti-Flag antibodies. Proteins were detected by immunoblotting. […] 293 cells were transfected with N-Myc hGli-1, hSu(fu) C-Flag and increasing amounts of hfused. The amount of hfused and hSu(fu) bound to hGli-1 was determined by anti-Myc immunoprecipitation and immunoblotting. Protein expression was analyzed by immunoblotting aliquots of total cell lysates (bottom panel).
(§2) For immunoprecipitation experiments human embryonic kidney 293 cells or C3H10T1/2 cells (ATCC 226-CCL) were transiently transfected with the various expression plasmids in 10 cm plates with lipofectamine (Gibco […]). For every transfection, the total amount of DNA was normalized with an expression plasmid encoding EGFP. […]

[3] = molecular target: T3, human fused; test: FIG. 14C: 293 cells transfected with N-Myc hGli-1, hSu(fu) C-Flag and increasing amounts of hfused
Excerpt: as §1, §2

binding result [2]	binding result [3]	Molecule	in vitro kinase assay with [γ-32P]ATP [1]
		purified PKAc (Upstate biotechnology)	when tested in vitro, GST-hSu(fu) was highly phosphorylated by purified PKAc
binds	binds	N-Myc hGli-1 (other, human, UniProt P08151 1-1106, looked up, not shown: small tags and cut ends, Expressed in C3H10T1/2 or 293 cells; also called human Gli-1) MFNSMTPPPISSYGEPCCLRPLPSQGAPSVGTEGLSGPPFCHQANLMSGPHSYGPARETNSCTEGPLFSSPRSAVKLTKKRALSISPLSDASLDLQTVIRTSPSSLVAFINSRCTSPGGSYGHLSIGTMSPSLGFPAQMNHQKGPSPSFGVQPCGPHDSARGGMIPHPQSRGPFPTCQLKSELDMLVGKCREEPLEGDMSSPNSTGIQDPLLGMLDGREDLEREEKREPESVYETDCRWDGCSQEFDSQEQLVHHINSEHIHGERKEFVCHWGGCSRELRPFKAQYMLVVHMRRHTGEKPHKCTFEGCRKSYSRLENLKTHLRSHTGEKPYMCEHEGCSKAFSNASDRAKHQNRTHSNEKPYVCKLPGCTKRYTDPSSLRKHVKTVHGPDAHVTKRHRGDGPLPRAPSISTVEPKREREGGPIREESRLTVPEGAMKPQPSPGAQSSCSSDHSPAGSAANTDSGVEMTGNAGGSTEDLSSLDEGPCIAGTGLSTLRRLENLRLDQLHQLRPIGTRGLKLPSLSHTGTTVSRRVGPPVSLERRSSSSSSISSAYTVSRRSSLASPFPPGSPPENGASSLPGLMPAQHYLLRARYASARGGGTSPTAASSLDRIGGLPMPPWRSRAEYPGYNPNAGVTRRASDPAQAADRPAPARVQRFKSLGCVHTPPTVAGGGQNFDPYLPTSVYSPQPPSITENAAMDARGLQEEPEVGTSMVGSGLNPYMDFPPTDTLGYGGPEGAAAEPYGARGPGSLPLGPGPPTNYGPNPCPQQASYPDPTQETWGEFPSHSGLYPGPKALGGTYSQCPRLEHYGQVQVKPEQGCPVGSDSTGLAPCLNAHPSEGPPHPQPLFSHYPQPSPPQYLQSGPYTQPPPDYLPSEPRPCLDFDSPTHSTGQLKAQLVCNYVQSQQELLWEGGGREDAPAQEPSYQSPKFLGGSQVSPSRAKAPVNTYGPGFGPNLPNHKSGSYPTPSPCHENFVVGANRASHRAAAPPRLLPPLPTCYGPLKVGGTNPSCGHPEVGRLGGGPALYPPPEGQVCNPLDSLDLDNTQLDFVAILDEPQGLSPPPSHDQRGSSGHTPPPSGPPNMAVGNMSVLLRSLPGETEFLNSSA	
